Data on 1 substance can be found in patent US20240398929A1.

The target of assay [1] is GP[change] with 12D insertion after residue A309 (Ebola virus).
The target in assay [2] is GP[change] with 8D insertion after residue A309 (Ebola virus).

Turning to mAb114 (antibody), the fold increase in binding against WT-GPΔmucin in assay [1] and in assay [2] was 2 fold each time.
